Assay results: patent publication US20250340643A1 (AstraZeneca / MedImmune, published 2025)
Where two headings read alike, the source gives them in different places.

B1: Tremelimumab, stressed starting material (low pH 2.5-3.0, 45° C., shaking) (antibody, human IgG2, kappa, V domains shown)
VH: QVQLVESGGGVVQPGRSLRLSCAASGFTFSSYGMHWVRQAPGKGLEWVAVIWYDGSNKYYADSVKGRFTISRDNSKNTLYLQMNSLRAEDTAVYYCARDPRGATLYYYYYGMDVWGQGTTVTVSS
VL: DIQMTQSPSSLSASVGDRVTITCRASQSINSYLDWYQQKPGKAPKLLIYAASSLQSGVPSRFSGSGSGTDFTLTISSLQPEDFATYYCQQYYSTPFTFGPGTKVEIKR
B2: Heat-stressed Tremelimumab (40° C.), month 0 (oxidation study) (antibody, human IgG2, kappa, V domains shown)
VH: QVQLVESGGGVVQPGRSLRLSCAASGFTFSSYGMHWVRQAPGKGLEWVAVIWYDGSNKYYADSVKGRFTISRDNSKNTLYLQMNSLRAEDTAVYYCARDPRGATLYYYYYGMDVWGQGTTVTVSS
VL: DIQMTQSPSSLSASVGDRVTITCRASQSINSYLDWYQQKPGKAPKLLIYAASSLQSGVPSRFSGSGSGTDFTLTISSLQPEDFATYYCQQYYSTPFTFGPGTKVEIKR
modifications: oxidation by peptide mapping: Trp-52 1.8%, Met-256 1.3%, Met-362 1.6%, Met-401 1.6%, Met-432 1.2%
B3: Heat-stressed Tremelimumab (40° C.), month 3 (oxidation study) (antibody, human IgG2, kappa, V domains shown)
VH: QVQLVESGGGVVQPGRSLRLSCAASGFTFSSYGMHWVRQAPGKGLEWVAVIWYDGSNKYYADSVKGRFTISRDNSKNTLYLQMNSLRAEDTAVYYCARDPRGATLYYYYYGMDVWGQGTTVTVSS
VL: DIQMTQSPSSLSASVGDRVTITCRASQSINSYLDWYQQKPGKAPKLLIYAASSLQSGVPSRFSGSGSGTDFTLTISSLQPEDFATYYCQQYYSTPFTFGPGTKVEIKR
modifications: oxidation by peptide mapping: Trp-52 4.5%, Met-256 2.5%, Met-362 3.1%, Met-401 4.3%, Met-432 2.7%
B4: Heat-stressed Tremelimumab (40° C.), month 1 (oxidation study) (antibody, human IgG2, kappa, V domains shown)
VH: QVQLVESGGGVVQPGRSLRLSCAASGFTFSSYGMHWVRQAPGKGLEWVAVIWYDGSNKYYADSVKGRFTISRDNSKNTLYLQMNSLRAEDTAVYYCARDPRGATLYYYYYGMDVWGQGTTVTVSS
VL: DIQMTQSPSSLSASVGDRVTITCRASQSINSYLDWYQQKPGKAPKLLIYAASSLQSGVPSRFSGSGSGTDFTLTISSLQPEDFATYYCQQYYSTPFTFGPGTKVEIKR
modifications: oxidation by peptide mapping: Trp-52 1.6%, Met-256 1.4%, Met-362 2.1%, Met-401 2.4%, Met-432 1.5%
B5: Heat-stressed Tremelimumab (40° C.), month 2 (oxidation study) (antibody, human IgG2, kappa, V domains shown)
VH: QVQLVESGGGVVQPGRSLRLSCAASGFTFSSYGMHWVRQAPGKGLEWVAVIWYDGSNKYYADSVKGRFTISRDNSKNTLYLQMNSLRAEDTAVYYCARDPRGATLYYYYYGMDVWGQGTTVTVSS
VL: DIQMTQSPSSLSASVGDRVTITCRASQSINSYLDWYQQKPGKAPKLLIYAASSLQSGVPSRFSGSGSGTDFTLTISSLQPEDFATYYCQQYYSTPFTFGPGTKVEIKR
modifications: oxidation by peptide mapping: Trp-52 2.5%, Met-256 2.0%, Met-362 2.6%, Met-401 3.8%, Met-432 2.2%
B6: Tremelimumab incubated with 100 ppm H2O2 for 3 days (antibody, human IgG2, kappa)
heavy: QVQLVESGGGVVQPGRSLRLSCAASGFTFSSYGMHWVRQAPGKGLEWVAVIWYDGSNKYYADSVKGRFTISRDNSKNTLYLQMNSLRAEDTAVYYCARDPRGATLYYYYYGMDVWGQGTTVTVSSASTKGPSVFPLAPCSRSTSESTAALGCLVKDYFPEPVTVSWNSGALTSGVHTFPAVLQSSGLYSLSSVVTVPSSNFGTQTYTCNVDHKPSNTKVDKTVERKCCVECPPCPAPPVAGPSVFLFPPKPKDTLMISRTPEVTCVVVDVSHEDPEVQFNWYVDGVEVHNAKTKPREEQFNSTFRVVSVLTVVHQDWLNGKEYKCKVSNKGLPAPIEKTISKTKGQPREPQVYTLPPSREEMTKNQVSLTCLVKGFYPSDIAVEWESNGQPENNYKTTPPMLDSDGSFFLYSKLTVDKSRWQQGNVFSCSVMHEALHNHYTQKSLSLSPGK
light: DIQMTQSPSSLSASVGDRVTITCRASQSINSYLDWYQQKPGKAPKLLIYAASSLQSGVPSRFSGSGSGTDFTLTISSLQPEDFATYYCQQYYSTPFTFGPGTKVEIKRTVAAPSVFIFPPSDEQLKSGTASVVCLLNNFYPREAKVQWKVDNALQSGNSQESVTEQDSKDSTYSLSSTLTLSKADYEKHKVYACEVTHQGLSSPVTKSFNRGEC
modifications: oxidation by peptide mapping: Met-256 68.5%, Met-362 26.5%, Met-401 55.2%, Met-432 42.1%

Tests used:
[1] = target: T1, CTLA4 on the cells of the reporter gene bioassay (human, UniProt P16410 36-223); assay: cell-based or functional assay
T1 sequence (looked up): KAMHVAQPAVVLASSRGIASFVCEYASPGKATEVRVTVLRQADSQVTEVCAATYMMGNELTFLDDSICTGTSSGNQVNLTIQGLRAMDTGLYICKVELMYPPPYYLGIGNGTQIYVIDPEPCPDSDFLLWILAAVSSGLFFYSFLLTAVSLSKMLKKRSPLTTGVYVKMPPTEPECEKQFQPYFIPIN

[2] = target: T1, CTLA4 on the cells of the reporter gene …; assay: cell-based or functional assay; remark: listed apart in the source
[3] = target: T1, CTLA4 on the cells of the reporter gene …; assay: cell-based or functional assay; remark: listed apart in the source
recombinant FcRn = target: T2, recombinant FcRn (UniProt P55899 24-297; P61769 21-119, limits assumed); assay: SPR, recombinant FcRn immobilized on the sensor; relative to Reference Standard
T2 construct: also called Neonatal Fc Receptor
T2 sequence (P55899 24-297 limits assumed, form in doubt, chain 1 of 2): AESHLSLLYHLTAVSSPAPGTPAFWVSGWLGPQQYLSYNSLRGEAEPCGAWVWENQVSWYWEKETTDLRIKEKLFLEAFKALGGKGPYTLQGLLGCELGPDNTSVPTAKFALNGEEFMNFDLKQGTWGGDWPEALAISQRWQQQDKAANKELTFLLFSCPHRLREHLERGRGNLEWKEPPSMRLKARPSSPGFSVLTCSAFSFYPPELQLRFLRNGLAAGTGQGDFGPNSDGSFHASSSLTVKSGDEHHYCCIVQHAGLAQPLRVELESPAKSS
T2 sequence (P61769 21-119 limits assumed, form in doubt, chain 2 of 2): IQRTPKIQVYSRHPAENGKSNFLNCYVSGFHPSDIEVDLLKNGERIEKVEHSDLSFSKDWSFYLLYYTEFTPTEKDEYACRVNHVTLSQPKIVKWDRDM
From the text: A surface plasmon resonance binding assay was used to measure FcRn binding. This method is based on the ability of the test sample to bind to recombinant FcRn that has been immobilized on an SPR sensor surface. A reference flow cell was created using the same standard amine coupling procedure without the addition of FcRn.

Binder	Relative Potency (%) [2]	also measured
B1	–	Relative Potency (%) [1]: 91%
B2	100%	–
B3	98%	–
B4	112%	–
B5	101%	–
B6	–	Relative Potency (%) [3]: 83%; Relative FcRn Binding (%) (recombinant FcRn): 28%
